{
  "source": "paper PMC8221637",
  "about": "(Science Advances, 2021)",
  "proteins": {"B1": {"name": "recombinant His-PIPKIγ (enzyme)", "chain": "MELEVPDEAESAEAGAVPSEAAWAAESGAAAGLAQKKAAPTEVLSMTAQPGPGHGKKLGHRGVDASGETTYKKTTSSTLKGAIQLGIGYTVGHLSSKPERDVLMQDFYVVESIFFPSEGSNLTPAHHFQDFRFKTYAPVAFRYFRELFGIRPDDYLYSLCNEPLIELSNPGASGSLFYVTSDDEFIIKTVMHKEAEFLQKLLPGYYMNLNQNPRTLLPKFYGLYCVQSGGKNIRVVVMNNILPRVVKMHLKFDLKGSTYKRRASKKEKEKSFPTYKDLDFMQDMPEGLLLDADTFSALVKTLQRDCLVLESFKIMDYSLLLGVHNIDQHERERQAQGAQSTSDEKRPVGQKALYSTAMESIQGGAARGEAIESDDTMGGIPAVNGRGERLLLHIGIIDILQSYRFIKKLEHTWKALVHDGDTVSVHRPSFYAERFFKFMSNTVFRKNSSLKSSPSKKGRGGALLAVKPLGPTAAFSASQIPSEREEAQYDLRGARSYPTLEDEGRPDLLPCTPPSFEEATTASIATTLSSTSLSIPERSPSETSEQPRYRRRTQSSGQDGRPQEEPPAEEDLQQITVQVEPACSVEIVVPKEEDAGVEASPAGASAAVEVETASQASDEEGAPASQASDEEDAPATDIYFFTDGRYWIYSPRHRRLRAVTLSASGTPTDERSWVYSPLHYSAQAPPASDGESDT"}},
  "molecular_target": "the molecule itself",
  "assay": "SEC",
  "data": [
    {"protein": "B1", "values": [
      {"measurement": "stoichiometry N", "result": 2}
    ]}
  ]
}
